Measured values from patent US20260217843A1.

Assays:
[1] = target: C1q; assay: SPR (Biacore 8K+), antibody captured by anti-human IgG Fc, C1q injected at 25 nM, mean response
[2] = target: cynomolgus FcRn (cynomolgus) (UniProt Q8SPV9); assay: SPR (Biacore 8K+), antibody captured by anti-human kappa, cynomolgus FcRn injected, pH 5.8; pH 5.8
[3] = target: human FcRn (human) (UniProt P55899); assay: SPR (Biacore 8K+), antibody captured by anti-human kappa, human FcRn injected, pH 5.8; pH 5.8

Chain of C1q (P02745 23-245, chain 1 of 3): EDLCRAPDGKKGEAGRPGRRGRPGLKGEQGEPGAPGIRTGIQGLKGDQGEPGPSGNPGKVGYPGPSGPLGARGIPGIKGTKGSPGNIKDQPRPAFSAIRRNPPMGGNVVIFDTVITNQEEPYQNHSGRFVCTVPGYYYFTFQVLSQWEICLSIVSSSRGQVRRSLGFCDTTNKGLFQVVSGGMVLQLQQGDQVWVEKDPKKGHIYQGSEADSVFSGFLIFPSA
Chain of C1q (P02746 28-253, chain 2 of 3, further chain): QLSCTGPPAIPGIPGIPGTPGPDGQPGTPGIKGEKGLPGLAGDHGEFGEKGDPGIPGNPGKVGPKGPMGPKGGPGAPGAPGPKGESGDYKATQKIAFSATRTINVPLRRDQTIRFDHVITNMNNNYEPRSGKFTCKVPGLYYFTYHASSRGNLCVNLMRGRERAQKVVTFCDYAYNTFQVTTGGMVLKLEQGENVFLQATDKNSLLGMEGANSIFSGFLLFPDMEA
Chain of C1q (P02747 29-245, chain 3 of 3, further chain): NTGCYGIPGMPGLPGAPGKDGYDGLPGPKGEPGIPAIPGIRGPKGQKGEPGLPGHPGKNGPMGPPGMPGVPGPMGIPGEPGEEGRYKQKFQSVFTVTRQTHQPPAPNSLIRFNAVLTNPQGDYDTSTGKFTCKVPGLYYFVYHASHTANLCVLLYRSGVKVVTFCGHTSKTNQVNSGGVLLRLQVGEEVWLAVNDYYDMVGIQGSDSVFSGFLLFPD

RU at 25 nM C1q [1] [RU] | Substance | Kd [2] [µM] | Kd [3] [µM]
386 | Rituximab, an anti-CD20 antibody | – | –
– | positive control based on the sequences of the anti-hOX40L antibody amlitelimab | 0.926 | 1.11
